Assay results from paper PMC10322703 (Nature Microbiology, 2023).

The binders below were run against SNV Gn^H, recombinant histidine-tagged N-terminal ectodomain region (head domain) of Sin Nombre viru (Sin Nombre virus, UniProt Q89905) (assay: BLI). Settings: both partners purified.

Row | Binder | Kd [pM] | koff [s⁻¹] | kon [M⁻¹ s⁻¹]
1 | SNV-42, human monoclonal antibody (IgG1) (antibody, V domains shown) VH: EVQLVESGGGLVQPGGSLRLSCAASGFTFSTYEMNWVRQAPGKGLEWVSYIRSSGSTVYYADSVKGRFTISRDNAKNLLYLQMNSLRAGDTAVYYCARIPGGYTGYFDYWGQGALVTVSS VL: QSVLTQPPSVSGAPGQRVTISCTGSSSNIGAGYYVHWYQQLPGTVPKLLIYGNNNRPSGVPDRFSGSKSGTSASLAITGLQTEDEADYYCQSYDSSLSGWVFGGGTKLTVL | < 1 | < 1e-07 | 132000
2 | SNV-42^GR, germline-revertant form of SNV-42 (IgG1) (antibody, V domains shown) VH: EVQLVESGGGLVQPGGSLRLSCAASGFTFSSYEMNWVRQAPGKGLEWVSYISSSGSTIYYADSVKGRFTISRDNAKNSLYLQMNSLRAEDTAVYYCARIPGGYSGYFDYWGQGTLVTVSS VL: QSVLTQPPSVSGAPGQRVTISCTGSSSNIGAGYDVHWYQQLPGTAPKLLIYGNSNRPSGVPDRFSGSKSGTSASLAITGLQAEDEADYYCQSYDSSLSGWVFGGGTKLTVL | 811 | 0.000454 | 514000
3 | SNV-42 Fab (Fab, V domains shown) VH: EVQLVESGGGLVQPGGSLRLSCAASGFTFSTYEMNWVRQAPGKGLEWVSYIRSSGSTVYYADSVKGRFTISRDNAKNLLYLQMNSLRAGDTAVYYCARIPGGYTGYFDYWGQGALVTVSS VL: QSVLTQPPSVSGAPGQRVTISCTGSSSNIGAGYYVHWYQQLPGTVPKLLIYGNNNRPSGVPDRFSGSKSGTSASLAITGLQTEDEADYYCQSYDSSLSGWVFGGGTKLTVL | – | 0.00561 | 139000
4 | SNV-42 F(ab')2 (other) chain 1: EVQLVESGGGLVQPGGSLRLSCAASGFTFSTYEMNWVRQAPGKGLEWVSYIRSSGSTVYYADSVKGRFTISRDNAKNLLYLQMNSLRAGDTAVYYCARIPGGYTGYFDYWGQGALVTVSS chain 2: QSVLTQPPSVSGAPGQRVTISCTGSSSNIGAGYYVHWYQQLPGTVPKLLIYGNNNRPSGVPDRFSGSKSGTSASLAITGLQTEDEADYYCQSYDSSLSGWVFGGGTKLTVL | < 1 | < 1e-07 | 61400
